# B1: ETS translocation variant 1 (Homo sapiens), P50549-1 (parent)
# chain: MDGFYDQQVPYMVTNSQRGRNCNEKPTNVRKRKFINRDLAHDSEELFQDLSQLQETWLAEAQVPDNDEQFVPDYQAESLAFHGLPLKIKKEPHSPCSEISSACSQEQPFKFSYGEKCLYNVSAYDQKPQVGMRPSNPPTPSSTPVSPLHHASPNSTHTPKPDRAFPAHLPPSQSIPDSSYPMDHRFRRQLSEPCNSFPPLPTMPREGRPMYQRQMSEPNIPFPPQGFKQEYHDPVYEHNTMVGSAASQSFPPPLMIKQEPRDFAYDSEVPSCHSIYMRQEGFLAHPSRTEGCMFEKGPRQFYDDTCVVPEKFDGDIKQEPGMYREGPTYQRRGSLQLWQFLVALLDDPSNSHFIAWTGRGMEFKLIEPEEVARRWGIQKNRPAMNYDKLSRSLRYYYEKGIMQKVAGERYVYKFVCDPEALFSMAFPDNQRPLLKTDMERHINEEDTVPLSHFDESMAYMPEGGCCNPHPYNEGYVY
# Variants of: B1
# Conditions: with COP1, Q8NHY2-1
# Chain of COP1, Q8NHY2-1 (Q8NHY2 whole entry): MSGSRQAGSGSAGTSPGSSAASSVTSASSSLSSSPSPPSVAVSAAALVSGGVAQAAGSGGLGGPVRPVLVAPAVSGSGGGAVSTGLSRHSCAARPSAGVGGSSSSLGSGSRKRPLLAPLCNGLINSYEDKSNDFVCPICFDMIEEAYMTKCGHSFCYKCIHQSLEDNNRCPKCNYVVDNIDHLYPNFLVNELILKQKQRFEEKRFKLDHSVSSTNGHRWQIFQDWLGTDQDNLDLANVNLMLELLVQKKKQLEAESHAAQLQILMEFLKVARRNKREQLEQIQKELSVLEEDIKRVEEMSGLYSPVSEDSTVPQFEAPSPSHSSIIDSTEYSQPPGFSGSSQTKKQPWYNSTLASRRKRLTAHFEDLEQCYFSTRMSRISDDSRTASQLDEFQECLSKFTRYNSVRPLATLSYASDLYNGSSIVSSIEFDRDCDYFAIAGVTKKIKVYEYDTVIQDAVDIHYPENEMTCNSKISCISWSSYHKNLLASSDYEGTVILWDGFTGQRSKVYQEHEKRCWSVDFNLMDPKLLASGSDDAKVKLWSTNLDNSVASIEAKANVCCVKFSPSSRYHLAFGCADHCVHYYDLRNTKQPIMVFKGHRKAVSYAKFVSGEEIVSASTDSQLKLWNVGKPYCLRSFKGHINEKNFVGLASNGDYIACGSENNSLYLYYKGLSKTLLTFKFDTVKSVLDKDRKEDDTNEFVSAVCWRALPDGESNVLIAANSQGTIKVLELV
row,Variant,effect of a mutation on the interaction
1,V71A;P72A,decreasing interaction
2,V63A;P64A;V71A;P72A,decreasing interaction

# From IntAct's records for PubMed 21572435
